# Test: soluble on expression in E. coli; label from the status in PepcDB or PDB records
row,Sequence,soluble on expression in E. coli
1,MKAINIALDGPAAAGKSTIAKRVASELSMIYVDTGAMYRALTYKYLKLNKTEDFAKLVDQTTLDLTYKADKGQCVILDNEDVTDFLRNNDVTQHVSYVASKEPVRSFAVKKQKELAAEKGIVMDGRDIGTVVLPDADLKVYMIASVEERAERRYKDNQLRGIESNFEDLKRDIEARDQYDMNREISPLRKADDAVTLDTTGKSIEEVTDEILAMVSQIK,soluble
2,MSLKILTIVVMSGNVISLNRPSANAAIRLGFTYEGRFRNHAIYKGRSRDTDWFSIIDSEWPVLKKRFENWLSPENFDEQGQQKRSLRDC,not soluble
3,MYDTPIFRSEFKVISHELIHALPKVILGESGDAAYMQSRVQQLADDHVAYFECTVPHEDIERAISVAEQAPFTVGILERIDDSSHYTDRSRTPVVVGFSTQSADVAAILRENYVPFEFDGSVADQVRVGASRIIHGIGLFEDFRFEDDDIVPGRLSAWVRDRDYPVLVEPFADLENGEVAELADHPLPLMSKLGYRTASSILSTDRLLELTEYLELQIEDLFELTRDAVAVSLLPQPLRVQLWEELVFPFFEQLGEDFADHSTTDDAESTTELRSEREHAGHAHTDHHGGAAGLEGVDPQFLDEMGIEFDDLDL,not soluble
4,SEQKYEEDIQKLQQEIEMLEAEQEETLRSIFVQHGDRLQQGVKSACEERGGGGAQQHTLSKLITEVRELEKDLRRQTEINGITLNECFVKTLHKSERKLIQQLRLAGHCGLLLFQVEFAVTEIQEDNVLHRRVTELNIVVDGVEFKDFSAFVSRVEDTKDLLLFFRTLRTFSERCEDRRQTFQHFQEKYPDVVNLPEGCRSEIMIIRSPQLPGISMTLFWKIHVSKEGVVKPLLDLLLKMPDQALELDTKKVMEKASDYFQSLLQLLGVEASIEGLIRTVCS,soluble
5,MQKEPRKVREFRRREQEILDTALKLFLEQGEDSVTVEMIADAVGIGKGTIYKHFKSKAEIYLRLMLDYERDLNELLHSADVDKDKEALSRAYFEFRMRDPQRYRLFDRLEEKVVKGNQVPELVEELHKIRASNFEHLTLLIKGRITEGKLEDVPPYYHYCAAWALVHGAVALYHSPFWSNVLEDQEGFFNFLMDIGVRMGNKRKRDTDVPAEPKPDPDV,not soluble
6,GMSNINYVILTVASVDFSYRETMARLMSSYSKDLIDNAGAKGTRFGSIGTGDHAGSLIFIQFYDDLTGYQKALEIQSKSSVFKEIMDSGKANIYLRNISTSLPTKFEQSYEHPKYIVLTRAEAAMSDKDKFLNCINDTASCFKDNGALTLRFGNLLTGSNVGNYLLGVGYPSMEAIEKTYDELLAHSSYKELMTFAKVNMRNIIKIL,soluble
7,MGSDKIHHHHHHMTNFPPLLLAYGLDLEGPIHRGIATYAKAMIRLLHQSGYPLHLLTGAGGLAQGRLASLSLHRHLDQPSNWSRIQLAQSYFAERLGRSRQTPIKVDSNLIIGDRIQYLQQIDQLINHPFFYRKLRLQAKISDRPFFLKTKNYPVVLTSSPLNLRVSSSSRLIQVIHDLIPLNYLRHPDEAVTFLRRLQATADYSDRIICLSETTRQQFLELFPQAESRTLTLYQPVSFSAEALALTDRPDFAAAVLRRYGLERDRYFFFVGAIEPRKNLETLIAAQQVAVLRTQLPLVIGGTADVHTQDYAQQLQQRSRSTDQILWTGYLTEAEKICLLRHCRALTFLSWQEGFGIPMIEAALCGRSSLLANIPVLREVMGAAATYANPQHPLEVADQLIQLGCYPAQLSELRSRATQQIQAFADGQVQQQIQQVLQSLIS,not soluble
8,QVQLQQSGAELVRPGVSVKISCKGSGYTFTDYGMHWVKQSHAKSLEWIGIISTYSGDASYNQKFKGKATMTVDKSSSTAYMELARLTSEDSAIYYCARSSTWYYFDYWGQGTTLTVSSAKTTAPSVYPLAPVCGDTTGSSVTLGCLVKGYFPEPVTLTWNSGSLSSGVHTFPAVLQSDLYTLSSSVTVTSSTWPSQSITCNVAHPASSTKVDKKIEPR,soluble
9,MLCASAEVEVFYDTDNNRKSDPAVFWQNPLNRSKFPLLSQIANRYLTTPASSAESERVFSGAGRVSTKLRRKMSTKSLSKSVFLQQNQKVLGFKIGLD,not soluble
10,GPGSMTANSKPARFLALAAAKQGTTANVAFNALSVYAKMELSKQTNKMLKVHAATTPLVALIQKRTGIKAAAEAVRQTQTAAKATATVSSYDNSEINPQYIGADIAAKMEQMRKHESYGKIKKDGHTLSAPSTAKFPTAEDSTLRKITISVAVQVLCTGSSNSKWQISGKLEG,soluble
11,MARSIDYGNLMHRAMRGLIQSVLEDVAEHGLPGAHHFFITFDTTHPDVAMADWLRARYPQEMTVVIQHWYENLSADDHGFSVTLNFGNQPEPLVIPFDAVRTFVDPSVEFGLRFETHEEDEEEETGGDEDPDGDDEPPRHDAQVVSLDKFRKAAALEHHHHHH,soluble

# From the DeepSol protein solubility set
